Source: publication PMC2943563

Biological target: myc-tagged murine CARD11 L225LI (murine) (UniProt Q8CIS0)
Assay: co-IP

fold increase in apparent oligomerization against wild-type CARD11: 3 fold
Substance: myc-tagged murine CARD11 L225LI (from UniProt Q8CIS0 1-1159) (natural protein)
